Test results from the supplement of paper PMC12042874.
± gives the uncertainty stated by the source.

Assay: amyloid nucleation score (Sup35N fusion, yeast selection) (log enrichment); library NNK3; higher = more nucleation; inactive = no reads after selection
In short: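 In psi-negative yeast, Sup35N fusions carrying peptides of 20 random codons were induced with 100 μM copper sulfate for 24 hours. The cells then grew 7 days at 30°C on medium lacking adenine and uracil, and plasmid inserts from input and output were Illumina-sequenced, excluding sequences with under 100 input reads. Nucleation score is the DiMSum log enrichment of output over input reads, centred on the mode score of non-aggregating sequences.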

Substance: CEVGQCQGYVELLSYIHYNS
- amyloid nucleation score: inactive

Substance: CEWNS
- amyloid nucleation score: inactive

Substance: CFAKCFMKNLRSIGRVFLMG
- amyloid nucleation score: inactive

Substance: CFCRMNIGGHCGVRRKLKV
- amyloid nucleation score: inactive

Substance: CFDCTVF
- amyloid nucleation score: inactive

Substance: CFGCVWLTITTNFPTVLFRG
- amyloid nucleation score: inactive

Substance: CFGISLTESMSTSQNVVLDH
- amyloid nucleation score: inactive

Substance: CFGRSGPW
- amyloid nucleation score: inactive

Substance: CFLVTVSSGTASMQVLGRSG
- amyloid nucleation score: 1.23 ± 0.14

Substance: CFLYYRM
- amyloid nucleation score: 1.17 ± 0.11

Substance: CFNNKVVNTWRICMVGLSLS
- amyloid nucleation score: inactive

Substance: CFPIPVWRGDLNGAPRYAQM
- amyloid nucleation score: inactive

Substance: CFRPPFTFRYFALARGKAAD
- amyloid nucleation score: inactive

Substance: CFSLGVCGQAKVNVWNNIYV
- amyloid nucleation score: 2.71 ± 0.054

Substance: CGGGALLDICLPFICPVNGL
- amyloid nucleation score: 0.843 ± 0.19

Substance: CGGLHQHNLMRRCRWMKPGE
- amyloid nucleation score: inactive

Substance: CGLDSCLVICQYK
- amyloid nucleation score: 0.584 ± 0.28

Substance: CGNTSIV
- amyloid nucleation score: inactive

Substance: CHASEWACYATLFLQT
- amyloid nucleation score: inactive

Substance: CHLPQRP
- amyloid nucleation score: 0.989 ± 0.2

Substance: CHPLGRCALWWCFVPHGRFA
- amyloid nucleation score: inactive

Substance: CIDQTTLKHTLDNCLIFF
- amyloid nucleation score: inactive

Substance: CIDSYLMYVFVAQQPGN
- amyloid nucleation score: inactive

Substance: CIFFWSALARLFFGLFNYPC
- amyloid nucleation score: inactive

Substance: CIFLDGVAPFWMGESRWRSG
- amyloid nucleation score: inactive

Substance: CIFMRIYGVC
- amyloid nucleation score: inactive

Substance: CIILAGYISLLRLDNDSGWV
- amyloid nucleation score: inactive

Substance: CIILRVCTHLVKSSARLPAP
- amyloid nucleation score: inactive

Substance: CIPPCW
- amyloid nucleation score: inactive

Substance: CIRSS
- amyloid nucleation score: inactive

Substance: CISRKFFSVRSVYLWYVSAT
- amyloid nucleation score: inactive

Substance: CISSCYWWFGFYVLKWE
- amyloid nucleation score: inactive

Substance: CIYCTSSL
- amyloid nucleation score: 0.519 ± 0.21

Substance: CIYNVKALIQRVWIMIEVTS
- amyloid nucleation score: 0.707 ± 0.13

Substance: CKIRGCKVLLDFVMASVDLW
- amyloid nucleation score: inactive

Substance: CKMRYEDESWFKWVVDLSFN
- amyloid nucleation score: inactive

Substance: CKNLWRVLGISPTRSSSMRV
- amyloid nucleation score: inactive

Substance: CKRCIPMRYYQL
- amyloid nucleation score: inactive

Substance: CKRHLNYSVSRAKAEKINYL
- amyloid nucleation score: inactive

Substance: CKSDFCISNVLWLYGLKFQR
- amyloid nucleation score: inactive

Substance: CKTHQVSYAYLC
- amyloid nucleation score: inactive

Substance: CKTLFFCMWNCFCFTVYSWF
- amyloid nucleation score: inactive

Substance: CLCSDTNVK
- amyloid nucleation score: inactive

Substance: CLELK
- amyloid nucleation score: -0.204 ± 1.1

Substance: CLGMSFLRRMGTMSAYPTIK
- amyloid nucleation score: inactive

Substance: CLMVKHYFFVSSWRFNVFGI
- amyloid nucleation score: inactive

Substance: CLPSFRGFTTNIMGLIRSRV
- amyloid nucleation score: inactive

Substance: CLPSVRQKGSWRLR
- amyloid nucleation score: -0.338 ± 0.82

Substance: CLQDPFPTIVPIVMGSIAKE
- amyloid nucleation score: inactive

Substance: CLRDCKTPDSATHTRAINGL
- amyloid nucleation score: inactive

Substance: CLRMGYVLRSRWERLDCLKW
- amyloid nucleation score: inactive

Substance: CLRRTLEPW
- amyloid nucleation score: inactive

Substance: CLRRVPLQRSSFLSVNLKLM
- amyloid nucleation score: inactive

Substance: CLTYHSCIFRVHLFTISINV
- amyloid nucleation score: inactive

Substance: CLVGPVHPMFVL
- amyloid nucleation score: inactive

Substance: CLVNNLCVLR
- amyloid nucleation score: 0.047 ± 0.55

Substance: CLVTLVLTKFWCMCASSAVD
- amyloid nucleation score: inactive

Substance: CLVVKLFHTSSCMNSYMRGG
- amyloid nucleation score: 1.67 ± 0.11

Substance: CLYIKVFEFNS
- amyloid nucleation score: 2.16 ± 0.076

Substance: CLYKSFLIS
- amyloid nucleation score: inactive

Substance: CMAIVATATRSGPVGRSLAK
- amyloid nucleation score: 0.508 ± 0.33

Substance: CMAMSFPWWWYTGIITYSL
- amyloid nucleation score: inactive

Substance: CMFFLLPIIAYSV
- amyloid nucleation score: inactive

Substance: CMFKGHAELLRWVL
- amyloid nucleation score: inactive

Substance: CMIMRAFRYNVALDMHMLHD
- amyloid nucleation score: inactive

Substance: CMKLYRHFLNKASVHSDKGV
- amyloid nucleation score: inactive

Substance: CMRYVGSPDNRHWASGKGIP
- amyloid nucleation score: inactive

Substance: CMVFMYQILVPAWALRSYIL
- amyloid nucleation score: inactive

Substance: CMVLDGRYNGWSISVWDARL
- amyloid nucleation score: inactive

Substance: CMVNFS
- amyloid nucleation score: inactive

Substance: CNCPPPPSSRYYSFSKAVYG
- amyloid nucleation score: inactive

Substance: CNCVRWWRSSSTTNG
- amyloid nucleation score: inactive

Substance: CNHLSSTCFT
- amyloid nucleation score: inactive

Substance: CNLGWRNLDMVKG
- amyloid nucleation score: inactive

Substance: CNLVVYCMSDNDV
- amyloid nucleation score: 2.33 ± 0.049

Substance: CNQTSM
- amyloid nucleation score: inactive

Substance: CNVGPVSLFRFMGPLNYRDE
- amyloid nucleation score: inactive

Substance: CNVIE
- amyloid nucleation score: inactive

Substance: CNYCALLTCLRGMPN
- amyloid nucleation score: 1.16 ± 0.12

Substance: CPCFNLV
- amyloid nucleation score: inactive

Substance: CPGVHWHDVK
- amyloid nucleation score: inactive

Substance: CPLLSGFDESWDVEYDAQGD
- amyloid nucleation score: inactive

Substance: CPLVFDMILVSLCSNGAGLI
- amyloid nucleation score: inactive

Substance: CPTVMAYGKTGG
- amyloid nucleation score: 0.934 ± 0.21

Substance: CPVTIYSVYNTASVKALFLR
- amyloid nucleation score: inactive

Substance: CQISWL
- amyloid nucleation score: inactive

Substance: CQRYQALSNCPYSATWGSDT
- amyloid nucleation score: inactive

Substance: CQVSCFNLVSIKSWDKIAGS
- amyloid nucleation score: 2.52 ± 0.06

Substance: CRAVND
- amyloid nucleation score: inactive

Substance: CRDSWFWSV
- amyloid nucleation score: inactive

Substance: CRHTLSRHDVTRCNSEVSSL
- amyloid nucleation score: inactive

Substance: CRMDGIKGSEIRNADAWAIY
- amyloid nucleation score: inactive

Substance: CRNSEKVWDPQRTVRALSRF
- amyloid nucleation score: inactive

Substance: CRRFELS
- amyloid nucleation score: -1.04 ± 1.9

Substance: CRSGCQ
- amyloid nucleation score: inactive

Substance: CRVAMILSCFTMVFCSQAAT
- amyloid nucleation score: 1.5 ± 0.081

Substance: CRVSGGTCMTGISDRRRERI
- amyloid nucleation score: inactive

Substance: CRYESVYLNVEILPVTVAVV
- amyloid nucleation score: inactive

Substance: CRYSLWSFSQMGEWMPRCER
- amyloid nucleation score: inactive

Substance: CSCYENFELVPGFRRCRGMV
- amyloid nucleation score: inactive

Substance: CSFIAGAPTSFWVVGLCWKY
- amyloid nucleation score: -0.031 ± 0.72

Substance: CSIARLFWFFPVMPSCIG
- amyloid nucleation score: -0.236 ± 1.1

Substance: CSIGRSTVDVRWGEGLWNRL
- amyloid nucleation score: inactive

Substance: CSIWLCNKNVQIAN
- amyloid nucleation score: inactive

Substance: CSLLGKMLTYNSDYGFQLNY
- amyloid nucleation score: inactive

Substance: CSLQWFMV
- amyloid nucleation score: inactive

Substance: CSLVSYSSLLGTCVDGIRDR
- amyloid nucleation score: inactive

Substance: CSMVSWLIHCANMHRKTSTS
- amyloid nucleation score: inactive

Substance: CSNAHFWVRILKECSLRGSG
- amyloid nucleation score: 0.587 ± 0.41

Substance: CSNLIIMKNSIERQTAFRYN
- amyloid nucleation score: 0.284 ± 0.14

Substance: CSNWLWWYYYVRMYRSVRFS
- amyloid nucleation score: -0.368 ± 0.64

Substance: CSQPCRHFYKVKGGYTFKCL
- amyloid nucleation score: inactive

Substance: CSSRMVFLRHLAGFLWGRPP
- amyloid nucleation score: 0.038 ± 0.85

Substance: CSVGSFFRFDIIYWKYAGSL
- amyloid nucleation score: -0.2 ± 0.36

Substance: CTFFGKLLSCFVYSGMVQ
- amyloid nucleation score: inactive

Substance: CTKWGGVSVISCQLAVSAKI
- amyloid nucleation score: inactive

Substance: CTRHLQMFVNIF
- amyloid nucleation score: 2.23 ± 0.056

Substance: CTRITHGGGVTSLRNTSESN
- amyloid nucleation score: inactive

Substance: CTSGLVVGLVFLMI
- amyloid nucleation score: -0.716 ± 1.4

Substance: CTSTAVLGSVLCK
- amyloid nucleation score: inactive

Substance: CVCVGDSDYCSQSVCVTSYR
- amyloid nucleation score: inactive

Substance: CVEIVGMESASCVVMNPLVC
- amyloid nucleation score: inactive

Substance: CVFDSCSSLYKDMYTLCHVS
- amyloid nucleation score: inactive

Substance: CVFLKKPEKMQLLASSFNS
- amyloid nucleation score: inactive

Substance: CVFNMLEQ
- amyloid nucleation score: inactive

Substance: CVMGVG
- amyloid nucleation score: 0.312 ± 0.31

Substance: CVPHRRAIVGFFRGCVNAAS
- amyloid nucleation score: inactive

Substance: CVTCLARLHDGPEGIVHLCT
- amyloid nucleation score: inactive

Substance: CVVELHHVCRVPMCPFCWTV
- amyloid nucleation score: inactive

Substance: CWAPHPKDRKPVRGNYSVHN
- amyloid nucleation score: inactive

Substance: CWLSWYFATKLGAYWELSNG
- amyloid nucleation score: inactive

Substance: CWPESISVVYLQYCAGSMSL
- amyloid nucleation score: inactive

Substance: CWPSVMFKISADNSGWFGVD
- amyloid nucleation score: inactive

Substance: CWVIVAYTI
- amyloid nucleation score: inactive

Substance: CYGALVVQTAYME
- amyloid nucleation score: inactive

Substance: CYIGCNLEILNRRDKPFIIR
- amyloid nucleation score: inactive

Substance: CYLGSHSFSAYCGQLFIFSV
- amyloid nucleation score: inactive

Substance: CYLVGLCLLFGVQVSGLPYR
- amyloid nucleation score: 0.798 ± 0.26

Substance: CYQPRYLSWLKVRDCEDGVY
- amyloid nucleation score: inactive

Substance: CYQSLECAIMGYGLYVYSWC
- amyloid nucleation score: inactive

Substance: CYSNTLELNDARNCFFNWVR
- amyloid nucleation score: inactive

Substance: CYVFIEDLTDGMSCRMLFSH
- amyloid nucleation score: inactive

Substance: CYVWSTALCVNISCGSSTAE
- amyloid nucleation score: 2.7 ± 0.054

Substance: CYWPVCYSFGKLQACFYFEI
- amyloid nucleation score: inactive

Substance: DAIEKD
- amyloid nucleation score: inactive

Substance: DAKKNLLVGVFCHYRSSQER
- amyloid nucleation score: inactive

Substance: DALVSYCWLSNLDTAGKMET
- amyloid nucleation score: inactive

Substance: DARVVGVLDVRDLAKYFWMA
- amyloid nucleation score: inactive

Substance: DATDCVRASMFMSFDASRH
- amyloid nucleation score: 1.29 ± 0.13

Substance: DAWDDNYNASRIGFAYMYSI
- amyloid nucleation score: inactive

Substance: DCARFILIT
- amyloid nucleation score: inactive

Substance: DCFSKRWLHLFANYSSVSTN
- amyloid nucleation score: inactive

Substance: DCIRIYQWASLSL
- amyloid nucleation score: inactive

Substance: DDAKFVWYVNINYRYMDSRS
- amyloid nucleation score: 2.16 ± 0.065

Substance: DDCFIARAFLSLGLPELYLG
- amyloid nucleation score: inactive

Substance: DDCIKPYSLIYTQRHTPRDI
- amyloid nucleation score: inactive

Substance: DDDHKIKLLLSGGL
- amyloid nucleation score: inactive

Substance: DDGDVNDGRTWFIL
- amyloid nucleation score: inactive

Substance: DDSPFLGRFK
- amyloid nucleation score: inactive
